Laboratory results published in the Human Domainome abundance scans (Beltran et al. 2025).
± gives the uncertainty stated by the source.

Assay: abundance fitness (aPCA) (normalised: wild type 0, dead -1); higher = more abundant; growth selection in yeast, the domain comes from the species named
Conditions: Homo sapiens
In the case of “Lipoamide acyltransferase component of branched-chain alpha-keto acid dehydrogenase complex, mitochondrial L209I, P11182”, the abundance fitness is reported as 0.047 ± 0.17.
“Lipoamide acyltransferase component of branched-chain alpha-keto acid dehydrogenase complex, mitochondrial L209K, P11182” showed an abundance fitness of 0.079 ± 0.087.
In the case of “Lipoamide acyltransferase component of branched-chain alpha-keto acid dehydrogenase complex, mitochondrial L172Y, P11182”, the abundance fitness is reported as -0.139 ± 0.07.
“Lipoamide acyltransferase component of branched-chain alpha-keto acid dehydrogenase complex, mitochondrial K202T, P11182” showed an abundance fitness of -0.211 ± 0.062.
For “Lipoamide acyltransferase component of branched-chain alpha-keto acid dehydrogenase complex, mitochondrial K211Q, P11182”, the abundance fitness was -0.024 ± 0.044.
For “Lipoamide acyltransferase component of branched-chain alpha-keto acid dehydrogenase complex, mitochondrial T171V, P11182”, the abundance fitness was 0.019 ± 0.057.
With “Lipoamide acyltransferase component of branched-chain alpha-keto acid dehydrogenase complex, mitochondrial P175N, P11182” the abundance fitness was -0.096 ± 0.053.
Substance “Lipoamide acyltransferase component of branched-chain alpha-keto acid dehydrogenase complex, mitochondrial S189F, P11182” has an abundance fitness of -0.343 ± 0.058.
“Lipoamide acyltransferase component of branched-chain alpha-keto acid dehydrogenase complex, mitochondrial G198I, P11182” gave an abundance fitness of -1.24 ± 0.23.
Work on “Lipoamide acyltransferase component of branched-chain alpha-keto acid dehydrogenase complex, mitochondrial S189A, P11182” yielded an abundance fitness of -0.03 ± 0.04.
“Lipoamide acyltransferase component of branched-chain alpha-keto acid dehydrogenase complex, mitochondrial T171D, P11182” showed an abundance fitness of -0.035 ± 0.073.
In the case of “Lipoamide acyltransferase component of branched-chain alpha-keto acid dehydrogenase complex, mitochondrial N207W, P11182”, the abundance fitness is reported as -0.183 ± 0.041.
Substance “Lipoamide acyltransferase component of branched-chain alpha-keto acid dehydrogenase complex, mitochondrial N185V, P11182” has an abundance fitness of -0.744 ± 0.1.
For “Lipoamide acyltransferase component of branched-chain alpha-keto acid dehydrogenase complex, mitochondrial L206Q, P11182”, the abundance fitness was -0.028 ± 0.051.
“Lipoamide acyltransferase component of branched-chain alpha-keto acid dehydrogenase complex, mitochondrial V191P, P11182” gave an abundance fitness of -0.482 ± 0.044.
With “Lipoamide acyltransferase component of branched-chain alpha-keto acid dehydrogenase complex, mitochondrial I205Y, P11182” the abundance fitness was -0.349 ± 0.15.
With “Lipoamide acyltransferase component of branched-chain alpha-keto acid dehydrogenase complex, mitochondrial G193R, P11182” the abundance fitness was -0.692 ± 0.04.
Substance “Lipoamide acyltransferase component of branched-chain alpha-keto acid dehydrogenase complex, mitochondrial G195V, P11182” has an abundance fitness of -0.702 ± 0.059.
“Lipoamide acyltransferase component of branched-chain alpha-keto acid dehydrogenase complex, mitochondrial N207G, P11182” gave an abundance fitness of -0.03 ± 0.042.
“Lipoamide acyltransferase component of branched-chain alpha-keto acid dehydrogenase complex, mitochondrial N207C, P11182” showed an abundance fitness of -0.302 ± 0.1.
“Lipoamide acyltransferase component of branched-chain alpha-keto acid dehydrogenase complex, mitochondrial N185W, P11182” gave an abundance fitness of -0.688 ± 0.16.
Work on “Lipoamide acyltransferase component of branched-chain alpha-keto acid dehydrogenase complex, mitochondrial R178S, P11182” yielded an abundance fitness of -0.081 ± 0.057.
For “Lipoamide acyltransferase component of branched-chain alpha-keto acid dehydrogenase complex, mitochondrial V191K, P11182”, the abundance fitness was -0.653 ± 0.045.
With “Lipoamide acyltransferase component of branched-chain alpha-keto acid dehydrogenase complex, mitochondrial G193C, P11182” the abundance fitness was -0.647 ± 0.059.
Work on “Lipoamide acyltransferase component of branched-chain alpha-keto acid dehydrogenase complex, mitochondrial Y208N, P11182” yielded an abundance fitness of -0.162 ± 0.061.
Work on “Lipoamide acyltransferase component of branched-chain alpha-keto acid dehydrogenase complex, mitochondrial L172R, P11182” yielded an abundance fitness of -0.347 ± 0.049.
With “Lipoamide acyltransferase component of branched-chain alpha-keto acid dehydrogenase complex, mitochondrial M182A, P11182” the abundance fitness was 0.018 ± 0.072.
Substance “Lipoamide acyltransferase component of branched-chain alpha-keto acid dehydrogenase complex, mitochondrial T213C, P11182” has an abundance fitness of -0.179 ± 0.074.
“Lipoamide acyltransferase component of branched-chain alpha-keto acid dehydrogenase complex, mitochondrial L209C, P11182” gave an abundance fitness of -0.052 ± 0.057.
Substance “Lipoamide acyltransferase component of branched-chain alpha-keto acid dehydrogenase complex, mitochondrial I205H, P11182” has an abundance fitness of -0.408 ± 0.064.
“Lipoamide acyltransferase component of branched-chain alpha-keto acid dehydrogenase complex, mitochondrial Y208P, P11182” showed an abundance fitness of -0.283 ± 0.044.
In the case of “Lipoamide acyltransferase component of branched-chain alpha-keto acid dehydrogenase complex, mitochondrial R199V, P11182”, the abundance fitness is reported as -0.129 ± 0.044.
With “Lipoamide acyltransferase component of branched-chain alpha-keto acid dehydrogenase complex, mitochondrial V177F, P11182” the abundance fitness was -0.818 ± 0.076.
“Lipoamide acyltransferase component of branched-chain alpha-keto acid dehydrogenase complex, mitochondrial N185A, P11182” gave an abundance fitness of -0.21 ± 0.074.
Nanos homolog 2 H95Q, P60321 showed an abundance fitness of -0.092 ± 0.071.
